Results reported in patent publication US20040132642A1, “Methods of inhibiting metastasis or growth of a tumor cell” (Government of the U.S.A., represented by the Secretary, …, priority 2002, published 2004).

Test system: CXCR4-B16 cells
Assay: adhesion of CXCR4-B16 cells to resting DMEC in parallel plate flow chamber
Type: cell-based, murine
Details: exogenously added chemokine
Method: Prior to interaction with tumor cells, resting confluent DMEC or LMEC were exposed to 100 ng/ml of recombinant CXCL12 or CCL21 for 15 min at 20° C. as described (Cinamon et al., Nat. Immunol. 2: 515-22 (2001)). After unbound chemokine was washed away, calcein-AM-labeled (Molecular Probes, Eugene, Oreg.) CXCR4- or pLNCX2-B16 cells (2.5×10^5/ml in B16 medium) were injected at 1.5 dynes/cm^2 into a parallel plate flow chamber (Glycotech, Gaithersburg, Md.) containing confluent DMEC or LMEC. In some cases, tumor cells were treated with pertussis toxin (PTX, Calbiochem, San Diego, Calif.) at 100 ng/ml for 2 hours at 37° C. to block Gi-protein-coupled signaling. After two min, flow was stopped, which enabled B16 cells to interact with MEC in the absence of shear stress. After 5 min, shear was re-established at 1.5 dynes/cm^2 for up to 2 min in order to detach unbound cells; adherent cells were digitally photographed in 5-6 random fields (each field=1.18 mm^2) with excitation at 488 nm and emission at 513 nm using sufficient exposure time (˜1 s) to allow distinction between non-moving and moving cells (which appeared as dim streaks) (Fitzhugh et al. (2000), supra). Cells were then counted with the software program IPlab (Scanalytics, Fairfax, Va.). […]

B1: CCL21: recombinant chemokine used as control on DMEC (protein, UniProt O00585 24-134, looked up)
C-C motif chemokine 21: SDGGAQDCCLKYSQRKIPAKVVRSYRKQEPSLGCSIPAILFLPRKRSQAELCADPKELWVQQLMQHLDKTPSPQKPAQGCRKDRGASKTGKKGKGSKGCKRTERSQTPKGP
- stimulation of adhesion of CXCR4-B16 cells to DMEC: no effect
